Reference: FireProtDB (doi:10.1093/protein/gzt061)

Settings: Rhodococcus erythropolis; pH 7.1; Thermal; Fluorescence; Potassium phosphate 50mM; transition: 2; reversible: no; whole UniProt chain shown

B1: Limonene-1,2-epoxide hydrolase wild type, Q9ZAG3 (protein)
chain: MTSKIEQPRWASKDSAAGAASTPDEKIVLEFMDALTSNDAAKLIEYFAEDTMYQNMPLPPAYGRDAVEQTLAGLFTVMSIDAVETFHIGSSNGLVYTERVDVLRALPTGKSYNLSILGVFQLTEGKITGWRDYFDLREFEEAVDLPLRG
Tm: 48.8 °C
